According to US20040052799A1, “Nucleic acid and amino acid sequences relating to Helicobacter pylori for diagnostics and therapeutics” (Astra Aktiebolag, priority 1996, published 2004):
Changes are numbered by the printed parent chain.

How the values were obtained:
H. pylori Asd = H. pylori Asd (Helicobacter pylori, UniProt Q9ZK28); assay: Asd assay, reverse reaction, NADPH formation
Procedure: The enzymatic activity of purified His-tagged H. pylori Asd (SEQ ID NO: 6545) was characterized by assaying the reverse reaction of phosphorylation of L-aspartate-β-semialdehyde (ASA) to L-p-aspartyl phosphate, with concomitant reduction of NADP^+ to NADPH. The formation of NADPH was detected by its absorbance, 340 nm, or by its fluorescence, excitation =340 nm, emission 455 nm.
ASA in 4 N HCl was prepared daily for use in Asd assays by partial neutralization with addition of 1.0 equivalent of […], with a resulting pH=1-2. The amount of ASA was determined enzymatically by complete reaction in the presence of excess NADP^+and phosphate. […] Assays were performed in the following buffer: 200 mM HEPES, 0.3 mM NADP^+, 30 mM NaH2PO4, 1.0 mM DTT, pH 7.5 or pH 8.0. ASA was used in the assay at concentrations of 5-165 μM by diluting the partially-neutralized ASA stock into the assay 10-200 fold, leading to a decrease in pH of 0.1 units or less. Reaction was initiated with the addition of enzyme to a final concentration of 3.5-70 nM.

[1] = biological target: T1, H. pylori glutamate racemase (murI gene product) (Helicobacter pylori, UniProt Q9ZLT0); assay: Glutamate racemase activity, conversion of D-glutamate to L-glutamate (two enzyme and single enzyme coupled assays); assay type: biochemical; conditions: purified recombinant enzyme
T1 construct: made in house; host or cells: E. coli BL21(DE3) carrying pET-23-murI and pACYC-groE (GroES/GroEL co-expressed)
T1 sequence (Q9ZLT0 1-255): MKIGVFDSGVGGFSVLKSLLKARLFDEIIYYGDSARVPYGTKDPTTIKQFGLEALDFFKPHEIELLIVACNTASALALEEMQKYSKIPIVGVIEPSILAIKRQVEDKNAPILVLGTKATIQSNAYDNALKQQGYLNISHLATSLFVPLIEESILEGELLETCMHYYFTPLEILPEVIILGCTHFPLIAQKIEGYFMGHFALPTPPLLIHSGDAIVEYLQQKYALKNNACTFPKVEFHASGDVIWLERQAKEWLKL
Procedure: The activity of glutamate racemase, interconversion of the enantiomers of glutamic acid, was measured using D-glutamic acid as substrate. The method of Gallo and Knowles (Gallo, K. A. and Knowles, J. R., 1993, Biochmistry 32, 3981-3990) that was used to measure the glutamate racemase activity of Lactobacillus fermenti was adapted for the measurement of glutamate racemase activity of the H. pylori murI gene product isolated as a recombinant protein from E. coli. […] Initial rates were determined by following the increase in absorbance at 500 nm in a reaction volume of 200 μl containing 50 mM Tris-HCl, pH 7.8, 4% v/v glycerol, 10 mM NAD, 2 mM INT, 60 Units/ml L-glutamate dehydrogenase, 5 Units/ml diaphorase, and varying concentrations of either substrate (from 0.063 mM to 250 mM D-glutamic acid) or purified enzyme (from 1 μg to 50 μg). After a preincubation of all reagents except either the substrate (D-glutamic acid) or the enzyme (murI gene product) for a period of 5 minutes, reactions were initiated by adding the missing ingredient (i.e., the enzyme or the subtrate, as required), and the increase in optical density at 500 nm was measured in a Microplate Spectophotometer System (Molecular Devices, Spectra MAX 250). Measurements were followed for 20 minutes, and initial velocities were derived by calculating the maximum slope for the absorbance increases. […]

H. pylori MurC = biological target: T2, H. pylori MurC (Helicobacter pylori, UniProt Q9ZLL2); assay: MurC continuous assay, ADP formation coupled to pyruvate kinase/lactate dehydrogenase; assay type: biochemical; conditions: 500 μM UDP-N-acetylmuramate, 1 mM L-alanine, 1 mM ATP, 0.0018 mg/ml MurC, 37° C.
T2 sequence (Q9ZLL2 1-449): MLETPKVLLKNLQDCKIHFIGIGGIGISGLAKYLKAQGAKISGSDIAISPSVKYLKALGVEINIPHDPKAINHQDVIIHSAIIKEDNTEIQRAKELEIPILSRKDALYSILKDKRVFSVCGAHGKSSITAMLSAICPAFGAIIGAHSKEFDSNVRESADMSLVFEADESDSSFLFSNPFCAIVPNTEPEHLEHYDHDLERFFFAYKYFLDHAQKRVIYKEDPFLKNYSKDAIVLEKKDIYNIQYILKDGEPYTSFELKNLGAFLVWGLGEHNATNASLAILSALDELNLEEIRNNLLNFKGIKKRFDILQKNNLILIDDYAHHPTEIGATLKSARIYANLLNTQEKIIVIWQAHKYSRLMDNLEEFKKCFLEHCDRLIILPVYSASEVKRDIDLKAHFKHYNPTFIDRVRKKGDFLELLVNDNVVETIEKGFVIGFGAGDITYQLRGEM
Procedure: Purified H. pylori MurC was assayed using a continuous assay by coupling ADP formation with NADH oxidation by the pyruvate kinase/lactate dehydrogenase enzyme couple. Assay conditions were as follows: 100 mM Tris·HCl pH 8.0, 2.5 mM 2-mercaptoethanol, 20 mM KCl, 10 mM DTT, 2 mM MgCl2, 10 mM PEP, 0.15 mM NADH, 3.5 units of pyruvate kinase, 5.5 units of lactate dehydrogenase (Sigma), 500 μM UDP-N-acetylmuramate, 1 mM L-alanine, 1 mM ATP and 0.0018 mg/ml MurC at 37° C. […] Previously boiled enzyme could not support ADP formation. Steady state analysis of the dependence of reaction velocity on substrate concentration was done by varying the concentration of a single substrate in concentrations ranging from 0.5 to 5 times Km while holding the other two substrates constant at 5 times Km concentrations.

B1: H. pylori Asd: purified His-tagged H. pylori Asd (SEQ ID NO: 6545) (protein, listed as Helicobacter pylori)
chain: MKTYNVAIVGASGAVGQELIKGLENSFFPIKKFVPLASARSAGKKIRAFNKDYEILETTHEVFEKEEIDIAFFSAGGSVSEEFAISASKTALVIDNTSFFRLNKDVPLVVPEINAQEIFNAPLNIIANPNCSTIQMTQILNPLHLHFKIKSVIVSTYQAVSGAGNKGIESLKNELKTALEHLEKDPAIDLNQVLQAGAFAYPIAFNAIAHIDTFKENGYTKEELKMVHETHKIMGVDFPISATCVRVPVLRSHSESLSIAFEKEFDLKEVYEVLKNAPSVVVCDDPSHNLYPTPLKASHTDSVFIGRLRKDLFDKKTLHGFCVADQLRVGAATNALKIALHYIKNA
modifications: His tag; misc_feature (B) LOCATION 1...346; hypothetical: YES
H. pylori Asd
  decrease of kcat relative to the E. coli enzyme: about 5 fold
H. pylori Asd; ionic strength as high as 0.7 M
  effect of ionic strength on activity: unaffected
H. pylori Asd; pH 8.0
  kcat: 5.4 s⁻¹

B2: H. pylori glutamate racemase: purified recombinant H. pylori glutamate racemase (SEQ ID NO: 7635) (protein, listed as Helicobacter pylori)
chain: T1 sequence (Q9ZLT0 1-255)
modifications: misc_feature (B) LOCATION 1...255; hypothetical: YES
[1]
  kcat: 0.143 s⁻¹
[1]; D-glutamate substrate
  Vmax: ~300 nmoles/min/mg protein

B3: H. pylori MurC: His-tagged H. pylori MurC (SEQ ID NO: 7607) purified from E. coli (protein, listed as Helicobacter pylori)
chain: T2 sequence (Q9ZLL2 1-449) with N313D, A329T
modifications: His tag; misc_feature (B) LOCATION 1...449; hypothetical: YES
H. pylori MurC
  specific activity: 5900 nmol/min/mg
